Literature values in patent publication US20250332099A1, “PROCESS FOR FORMULATING COMPOSITIONS COMPRISING GLUCAGON-LIKE-PEPTIDE-2 (GLP-2) ANALOGUES” (ZEALAND PHARMA A/S, priority 2021, published 2025).

| half-life (compared with seven minutes for native GLP-2) | Compound | half-life in humans |
| --- | --- | --- |
| about two | CC[C@H](C)[C@H](NC(=O)[C@H](Cc1ccccc1)NC(=O)[C@H](CC(=O)O)NC(=O)[C@H](CCCNC(=N)N)NC(=O)[C@H](C)NC(=O)[C@H](C)NC(=O)[C@H](CC(C)C)NC(=O)[C@H](CC(N)=O)NC(=O)[C@H](CC(=O)O)NC(=O)[C@H](CC(C)C)NC(=O)[C@@H](NC(=O)[C@@H](NC(=O)[C@H](CC(N)=O)NC(=O)[C@H](CCSC)NC(=O)[C@H](CCC(=O)O)NC(=O)[C@H](CC(=O)O)NC(=O)[C@H](CO)NC(=O)[C@H](Cc1ccccc1)NC(=O)[C@H](CO)NC(=O)CNC(=O)[C@H](CC(=O)O)NC(=O)CNC(=O)[C@@H](N)Cc1c[nH]cn1)[C@@H](C)O)[C@@H](C)CC)C(=O)N[C@@H](CC(N)=O)C(=O)N[C@@H](Cc1c[nH]c2ccccc12)C(=O)N[C@@H](CC(C)C)C(=O)N[C@H](C(=O)N[C@@H](CCC(N)=O)C(=O)N[C@H](C(=O)N[C@@H](CCCCN)C(=O)N[C@H](C(=O)N[C@H](C(=O)N[C@@H](CC(=O)O)C(=O)O)[C@@H](C)O)[C@@H](C)CC)[C@@H](C)O)[C@@H](C)CC [teduglutide] | – |
| – | GLP-2 [3-33]: truncated GLP-2 [3-33] (DGSFSDEMNTILDNLAARDFINWLIQTKITD; Glucagon-like peptide 2; UniProt P01275 148-178, looked up, fragment) | 27 min |
| – | Hy-His-Ala-Asp-Gly-Ser-Phe-Ser-Asp-Glu-Met-Asn-Thr-Ile-Leu-Asp-Asn-Leu-Ala-Ala-Arg-Asp-Phe-Ile-Asn-Trp-Leu-Ile-Gln-Thr-Lys-Ile-Thr-Asp-OH [GLP-2 [1-33]] | around 7 minutes |
